# Measurements as given in the supplement of paper PMC12042874.
# ± gives the uncertainty stated by the source.
# Test: amyloid nucleation score (Sup35N fusion, yeast selection) (log enrichment); library NNK3; higher = more nucleation; inactive = no reads after selection
# How it was run: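 For the nucleation score, DiMSum gave the log enrichment of output over input reads, centred on the mode score of non-aggregating sequences. Psi-negative yeast expressing Sup35N fused to peptides of 20 random codons were induced with 100 μM copper sulfate for 24 hours and grown 7 days at 30°C on medium lacking adenine and uracil. Input and output plasmid inserts were Illumina-sequenced, and sequences with under 100 input reads were excluded.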
row,Substance,amyloid nucleation score
1,VLRIFISWCSVQLSKRLWWT,inactive
2,VLRVDRGGTIMRYPCLG,inactive
3,VLSIDTDYKFIGHASDYASI,0.959 ± 0.16
4,VLSMRHSNTGMARCTDW,inactive
5,VLSQRVPQMHMTNGVTEASV,inactive
6,VLTFNKGFFGC,1.26 ± 0.11
7,VLTVYDCGLEQPW,inactive
8,VLVIIKSD,inactive
9,VLVLAMITFYNLYMYYDVGR,inactive
10,VLYSCERKELVIGMKVLVWE,inactive
11,VLYYCGFSITARKSEKLVWP,inactive
12,VMDLLK,inactive
13,VMGMDIIRIPS,inactive
14,VMGVAPSYASTYLLVILNMG,1.39 ± 0.15
15,VMIVRLYVIYPMFEVKP,inactive
16,VMKSYDWEDWSSDPFIFRYV,inactive
17,VMMFYNILHSQIDKLFKLLA,inactive
18,VMQHNVGLFNDHKYDSCRAC,inactive
19,VMTITLVLKWYGLLT,inactive
20,VMVFN,0.635 ± 0.36
21,VMYGIL,inactive
22,VNFACSIGGRGLFGFGIKVS,inactive
23,VNFCFFFKLLRGRSGYHLSW,2.15 ± 0.09

row,Substance,amyloid nucleation score
1,VNFFGR,inactive
2,VNGLLAIRVYCKHWP,inactive
3,VNHKFKSSFFNNH,-0.27 ± 1.1
4,VNKVKILCYGHHFKGMWDLA,inactive
5,VNNPQVDHRVLFNNM,-0.426 ± 0.61
6,VNRFVDTVGKGRITIIGCEH,inactive
7,VNRKEIRHVRLLCPSRGSVA,-0.091 ± 0.43
8,VNTLPQLLSLYSDLLRGESL,-0.218 ± 1.4
9,VNYRSNIFNHYCSFSRN,0.934 ± 0.11
10,VNYRTQRRTQYTQCTRKVGG,inactive
11,VPDLYSTEDGFSCCVSEYCT,inactive
12,VPIRECTMLSSMSWTGEPSY,inactive
13,VPMFSSLCPYTISLFQGTSP,inactive
14,VPNEVFISYLV,inactive
15,VQDPDL,inactive
16,VQFMMYVGTGIGAVGSGVNY,1.53 ± 0.11
17,VQLFSQNALPMFNSWKYYDH,inactive
18,VQSSPVYMFMTNNSF,1.8 ± 0.056
19,VQWCPNVYTDSQVCRYVSSR,inactive
20,VRAVLIAYGLK,inactive
21,VRCYRVIMRLTFAETCQGHP,inactive
22,VREFYN,inactive
23,VRIFSTVEKASP,inactive

row,Substance,amyloid nucleation score
1,VRMGVNLGNKTLNTWESSCD,inactive
2,VRNKLNCKRSGA,inactive
3,VRPLVDYMMQNM,inactive
4,VRRLFVARCRYCQLMYFRGE,inactive
5,VRSRRLLCKNRTVVEARNVV,inactive
6,VRTRMEPRG,inactive
7,VRVRVHVVVVVKLLKMVGAV,inactive
8,VRVSNYTRVLVYKDRVS,inactive
9,VRVSRNGSVLY,inactive
10,VRWQYVYMPPA,inactive
11,VRYPRSLVCYWYGRNHAVWA,inactive
12,VRYVNGSKCTFNLS,inactive
13,VSACLNSGGQHSQRHANMAV,inactive
14,VSATSQYQSICLSLNTKNRF,inactive
15,VSCRQLYQSIGGRKPDRRFI,inactive
16,VSEIFFADVFISWYGISRVL,inactive
17,VSFQD,inactive
18,VSFSSCTWSMQEERMLVSWG,inactive
19,VSFYSSCVWIDARSCDYCYF,2.79 ± 0.058
20,VSGMDCSGGFASVESMASYR,inactive
21,VSLFGCKIMLRMKFGVCLSG,inactive
22,VSLKVFYGNKDARNRDIPTL,inactive
23,VSLLNITTVMSSPRIQGKHV,1.01 ± 0.12

row,Substance,amyloid nucleation score
1,VSLLSVCGCDRRVFEVWHYG,0.446 ± 0.2
2,VSLMMCVVPFMPVLQHMSNA,0.793 ± 0.16
3,VSMRPMTSSRLKRFKYRYLY,inactive
4,VSNMCVGMKLCFSDNHYREL,1.78 ± 0.067
5,VSTGSAGSLWSV,inactive
6,VSVFMKLVRFET,1.17 ± 0.091
7,VSVNMFLYISVNYKELGCEY,1.93 ± 0.056
8,VSVYRRLGHIVLVIVITLAS,inactive
9,VTCCLLFLDCGVGSRMMLGL,-0.356 ± 0.98
10,VTCETSGADVVSTR,inactive
11,VTDEIFELSGKVTIDSAEL,inactive
12,VTFLHGCIDFAGSYSAGSSD,inactive
13,VTGDWTGYMPLCLISVAFLS,1.5 ± 0.083
14,VTLFAMPRNL,inactive
15,VTNPLGPFMDRF,inactive
16,VTNSFSIFSGIIVHSTSLMV,0.032 ± 0.6
17,VTQATWLGRIYLLLAPA,inactive
18,VTQESNHATIAVLM,inactive
19,VTQLWVLNSVSVYWKDLVAP,-0.319 ± 1.1
20,VTWNHSSCSERKRVRMSGWS,0.801 ± 0.14
21,VVDGLMAVFLSHVRVAIYYV,inactive
22,VVDLIFLSLF,inactive
23,VVLRTSLCVMWINVRHLCDP,inactive

row,Substance,amyloid nucleation score
1,VVLWWS,inactive
2,VVMIPNIFCDWRGNGNNQCG,1.33 ± 0.11
3,VVRIDSSLGKFNFQSAKD,inactive
4,VVRSRTFTSTSYTF,0.777 ± 0.23
5,VVSSFMMLVYMNLLNFSNVE,inactive
6,VVSSRLDAALDCWVREDCGV,inactive
7,VVYYFKMLMGVTLYSMVIWQ,inactive
8,VVYYWSVRITAVQHYWHLYT,inactive
9,VWAYFDMFDTFCYKVTARMK,inactive
10,VWCRQITMMACMSVR,inactive
11,VWCTSVVT,-0.149 ± 0.28
12,VWCYFVQYHGIISLSFIAFR,inactive
13,VWETATNFSISMLWRQAFRM,inactive
14,VWKLRLDVLIITIWGFNFYL,inactive
15,VWRRKKAGAHYREDVSNYPQ,inactive
16,VWVHA,inactive
17,VWVLHRRRSKYMQVTVWLDL,inactive
18,VWVLYGKITVPSPKARMGKT,-0.083 ± 1.1
19,VYACWIMSNVPSRAVEILYS,inactive
20,VYFGSWTWSVNSKHLPPALV,inactive
21,VYILFNWSRPSCHLIEHFRA,inactive
22,VYKWRAYIEHSNFWAIKPVC,inactive
23,VYLDFKGWFVMLSINLNQFY,inactive

row,Substance,amyloid nucleation score
1,VYLIKPMNDALSHHEPIKWD,inactive
2,VYNCAMVCPNLIFWSFATGL,2.55 ± 0.069
3,VYNLIRLFLYPTVISSITPL,inactive
4,VYNRRYKSNRNIYSHGNRLK,1.54 ± 0.1
5,VYNVTITNYRNLPAM,2.24 ± 0.088
6,VYQLIYVTGCQNAVRE,0.674 ± 0.32
7,VYRYFASKIIKGIFSRCCTF,inactive
8,VYSGSFGDSKLLMFWCSITV,inactive
9,VYVRVFGLLPDDTTSSF,inactive
10,WAAWFYASGVRASEGRDYGG,inactive
11,WAEFLCLSSSFFLDM,inactive
12,WAHLGLDNMYKVLCSRGANA,inactive
13,WANMTFTELSYIK,inactive
14,WAYLWLSKNSYGR,inactive
15,WCCHRAFLYI,inactive
16,WCFYFEQDMFHAPY,-0.106 ± 0.82
17,WCFYKSLIACGHIVGIEPDW,0.848 ± 0.15
18,WCFYKSRLFVVQVVVLYNRF,inactive
19,WCRCSFVVLHSVVVCSFGTR,-0.074 ± 0.69
20,WDDEFVWSGINN,inactive
21,WDFGPEVLSE,inactive
22,WDLITL,inactive
23,WDNITRNWRSCPHQMSLRYL,-0.148 ± 1

row,Substance,amyloid nucleation score
1,WDPECSTDVISEGRGRYTEW,inactive
2,WDPGFFWIMAVARFTIACQY,inactive
3,WDYILGFGHVSQRARMESFD,inactive
4,WFDSAPSPLDLRVHLFNVKV,inactive
5,WFFETQLSLWWVNGQDLAEV,inactive
6,WFFFDIAWRSPTIRRWTSSM,inactive
7,WFTVHLIVCSVRRLDSFVLP,inactive
8,WFVRIIQLIT,inactive
9,WFVYALMNRLEYSKAYFPML,inactive
10,WGCYSWTMVRS,1.33 ± 0.16
11,WGLWSVSVCWMRLFPGY,inactive
12,WGMSRLFVYFPVILLMISLT,inactive
13,WGNISGSA,inactive
14,WGSMMSWQVKFVSILNPLPR,inactive
15,WHTLLDCGVGEFWS,inactive
16,WHVEIIVHNMSFSILKNVGR,1.65 ± 0.1
17,WIFENMSYIRKICQWCKSYV,inactive
18,WILYSMMQLSMMFKSMYSVT,inactive
19,WIMISKSSMPMTPDAVQAMG,inactive
20,WINTRLGCPDTNRGSTRVTL,inactive
